Test results taken from patent US9993536B2, “Peptides and combination of peptides and scaffolds for use in immunotherapy against renal cell carcinoma (RCC) and other cancers” (immatics biotechnologies GmbH, priority 2015, dated 2018).

Biological target: HLA-A*02:01 (Homo sapiens, UniProt P04439, D140Y/D185E/D98H/E176V/E277Q/G131W/G231S/I119V/I121R/I166T/I218V/L300P/L318F/N151K/N90K/P208A/P217A/Q86G/Q94H/R138H/R169H/T345S)
Assay: MHC binding assay (UV-ligand exchange, beta2m ELISA)
Conditions: peptide exchange yield, HLA-A*02:01, UV-ligand exchange
Description: Candidate peptides for T cell based therapies according to the present invention were further tested for their MHC binding capacity (affinity). The individual peptide-MHC complexes were produced by UV-ligand exchange, where a UV-sensitive peptide is cleaved upon UV-irradiation, and exchanged with the peptide of interest as analyzed. Only peptide candidates that can effectively bind and stabilize the peptide-receptive MHC molecules prevent dissociation of the MHC complexes. To determine the yield of the exchange reaction, an ELISA was performed based on the detection of the light chain (β2m) of stabilized MHC complexes. The assay was performed as generally described in Rodenko et al. (Rodenko et al., 2006).
96 well MAXISorp plates (NUNC) were coated over night with 2 ug/ml streptavidin in PBS at room temperature, washed 4× and blocked for 1 h at 37° C. in 2% BSA containing blocking buffer. Refolded HLA-A*02:01/MLA-001 monomers served as standards, covering the range of 15-500 ng/ml. Peptide-MHC monomers of the UV-exchange reaction were diluted 100 fold in blocking buffer. Samples were incubated for 1 h at 37° C., washed four times, incubated with 2 ug/ml HRP conjugated anti-β2m for 1 h at 37° C., washed again and detected with TMB solution that is stopped with […]. Absorption was measured at 450 nm. Candidate peptides that show a high exchange yield (preferably higher than 50%, most preferred higher than 75%) are generally preferred for a generation and production of antibodies or fragments thereof, and/or T cell receptors or fragments thereof, as they show sufficient avidity to the MHC molecules and prevent dissociation of the MHC complexes.

Row | Peptide exchange (MHC class I binding score) | Substance
1 | ++ (≥20% = ++) | 89 (SLLLAVTEV; listed as Homo sapiens) [compound 89]
2 | +++ (≥50 = +++) | 82 (SLLQATDFMSL; listed as Homo sapiens) [compound 82]
3 | ++ (≥20% = ++) | 94 (ILHHKVYDL; listed as Homo sapiens) [compound 94]
4 | +++ (≥50 = +++) | 112 (LLFDHLEPIEL; listed as Homo sapiens) [compound 112]
5 | ++ (≥20% = ++) | 70 (SLTALRLLL; listed as Homo sapiens) [compound 70]
6 | ++ (≥20% = ++) | 81 (SLLPALPKL; listed as Homo sapiens) [compound 81]
7 | +++ (≥50 = +++) | 96 (TLAETLVNL; listed as Homo sapiens) [compound 96]
8 | +++ (≥50 = +++) | 80 (KLASMLETL; listed as Homo sapiens) [compound 80]
9 | +++ (≥50 = +++) | 114 (ALAVNISAA; listed as Homo sapiens) [compound 114]
10 | ++ (≥20% = ++) | 76 (VLADDHLIEV; listed as Homo sapiens) [compound 76]
11 | ++ (≥20% = ++) | 72 (YSLEKVFGI; listed as Homo sapiens) [compound 72]
12 | ++ (≥20% = ++) | 86 (GLLQGKLALL; listed as Homo sapiens) [compound 86]
13 | +++ (≥50 = +++) | 107 (VLMDLKALLL; listed as Homo sapiens) [compound 107]
14 | ++ (≥20% = ++) | 88 (TLAELHISL; listed as Homo sapiens) [compound 88]
15 | +++ (≥50 = +++) | 113 (SLFDWNVKL; listed as Homo sapiens) [compound 113]
16 | ++++ (≥75% = ++++) | 93 (GVMAGDIYSV; listed as Homo sapiens) [compound 93]
17 | +++ (≥50 = +++) | 85 (FVMSEIRTV; listed as Homo sapiens) [compound 85]
18 | ++ (≥20% = ++) | 69 (ILADLLPSL; listed as Homo sapiens) [compound 69]
19 | ++ (≥20% = ++) | 110 (LLDLHSYLL; listed as Homo sapiens) [compound 110]
20 | ++ (≥20% = ++) | 84 (YLMDEGAHL; listed as Homo sapiens) [compound 84]
21 | ++ (≥20% = ++) | 91 (MLLSSLVSL; listed as Homo sapiens) [compound 91]
22 | ++ (≥20% = ++) | 97 (TLISELVQA; listed as Homo sapiens) [compound 97]
23 | +++ (≥50 = +++) | 106 (VLMDLKALL; listed as Homo sapiens) [compound 106]
24 | +++ (≥50 = +++) | 92 (FLFRDILEL; listed as Homo sapiens) [compound 92]
25 | +++ (≥50 = +++) | 71 (ALDGHLYAV; listed as Homo sapiens) [compound 71]
26 | +++ (≥50 = +++) | 105 (ALADLDELLIRA; listed as Homo sapiens) [compound 105]
27 | ++ (≥20% = ++) | 77 (SLIKHKIML; listed as Homo sapiens) [compound 77]
28 | ++ (≥20% = ++) | 111 (TLLETEMLL; listed as Homo sapiens) [compound 111]
29 | +++ (≥50 = +++) | 75 (FLIKSINLV; listed as Homo sapiens) [compound 75]

More lines, now with the values behind:

Row | Substance | Peptide exchange (MHC class I binding score)
30 | 46 (GLSEVLVQI; listed as Homo sapiens) [compound 46] | +++ (≥50 = +++)
31 | 28 (FIADLVVGL; listed as Homo sapiens) [compound 28] | ++ (≥20% = ++)
32 | 12 (ALDPSGNQLI; listed as Homo sapiens) [compound 12] | ++ (≥20% = ++)
33 | 40 (YIQEHLLQI; listed as Homo sapiens) [compound 40] | +++ (≥50 = +++)
34 | 14 (ALLTETIFL; listed as Homo sapiens) [compound 14] | ++ (≥20% = ++)
35 | 57 (SLQKEILYL; listed as Homo sapiens) [compound 57] | ++ (≥20% = ++)
36 | 34 (ELNNQNFYL; listed as Homo sapiens) [compound 34] | +++ (≥50 = +++)
37 | 21 (RLIQGDQILSV; listed as Homo sapiens) [compound 21] | ++ (≥20% = ++)
38 | 33 (FIADVVEKI; listed as Homo sapiens) [compound 33] | ++ (≥20% = ++)
39 | 10 (KLLQNNYGL; listed as Homo sapiens) [compound 10] | ++ (≥20% = ++)
40 | 55 (YLALILPVL; listed as Homo sapiens) [compound 55] | ++ (≥20% = ++)
41 | 65 (IIYGGSVTGA; listed as Homo sapiens) [compound 65] | ++ (≥20% = ++)
42 | 23 (YIQEVVQYI; listed as Homo sapiens) [compound 23] | +++ (≥50 = +++)
43 | 25 (LLVPAHLVAA; listed as Homo sapiens) [compound 25] | ++ (≥20% = ++)
44 | 41 (GLLKTLQKL; listed as Homo sapiens) [compound 41] | ++ (≥20% = ++)
45 | 50 (SLSDHIVLL; listed as Homo sapiens) [compound 50] | ++ (≥20% = ++)
46 | 19 (LLDPGSLQL; listed as Homo sapiens) [compound 19] | ++ (≥20% = ++)
47 | 36 (SLFGKKYIL; listed as Homo sapiens) [compound 36] | ++ (≥20% = ++)
48 | 62 (VLAGPAFLVQL; listed as Homo sapiens) [compound 62] | +++ (≥50 = +++)
49 | 56 (ILMDFSNSM; listed as Homo sapiens) [compound 56] | +++ (≥50 = +++)

Row | Substance | Peptide exchange (MHC class I binding score)
50 | 11 (FIQTEAPKEV; listed as Homo sapiens) [compound 11] | ++ (≥20% = ++)
51 | 63 (GLIEDHFDVTV; listed as Homo sapiens) [compound 63] | ++ (≥20% = ++)
52 | 49 (VLIVEVPGV; listed as Homo sapiens) [compound 49] | +++ (≥50 = +++)
53 | 53 (FLLEIRQTL; listed as Homo sapiens) [compound 53] | ++ (≥20% = ++)
54 | 68 (YVLTQPPSV; listed as Homo sapiens) [compound 68] | ++ (≥20% = ++)
55 | 52 (SILDAVQRV; listed as Homo sapiens) [compound 52] | ++ (≥20% = ++)
56 | 59 (SLKNNVVSV; listed as Homo sapiens) [compound 59] | +++ (≥50 = +++)
57 | 44 (ALFSFVTAL; listed as Homo sapiens) [compound 44] | +++ (≥50 = +++)
58 | 37 (VLAPVILML; listed as Homo sapiens) [compound 37] | ++ (≥20% = ++)
59 | 31 (VLFGLDPAVIKV; listed as Homo sapiens) [compound 31] | +++ (≥50 = +++)
60 | 22 (FLSPPLPSV; listed as Homo sapiens) [compound 22] | +++ (≥50 = +++)
61 | 4 (FLSQDIITV; listed as Homo sapiens) [compound 4] | +++ (≥50 = +++)
62 | 67 (LLDVLAPLV; listed as Homo sapiens) [compound 67] | ++ (≥20% = ++)
63 | 61 (SLMGILLRI; listed as Homo sapiens) [compound 61] | ++ (≥20% = ++)
64 | 48 (VVASNIMEV; listed as Homo sapiens) [compound 48] | ++ (≥20% = ++)
65 | 27 (SLSDLLVSL; listed as Homo sapiens) [compound 27] | +++ (≥50 = +++)
66 | 18 (YVLDLAAKV; listed as Homo sapiens) [compound 18] | +++ (≥50 = +++)
67 | 24 (FTLGTTVFL; listed as Homo sapiens) [compound 24] | +++ (≥50 = +++)
68 | 5 (YLYPNLTRL; listed as Homo sapiens) [compound 5] | ++ (≥20% = ++)
